From patent publication US20240343809A1 (EXCELMAB, published 2024)

T1: human B7-H3 antigen, recombinant extracellular domain (ECD) (29-461) (human, UniProt Q5ZPR3 29-461)
T1 construct: range 29-461; Expressed in 293F cells as B7-H3-TEV-cFc-His fusion, cut with TEV protease and cleaned over a nickel column to give the human B7-H3 antigen; also called recombinant human B7-H3 antigen; hB7-H3
T1 sequence (looked up): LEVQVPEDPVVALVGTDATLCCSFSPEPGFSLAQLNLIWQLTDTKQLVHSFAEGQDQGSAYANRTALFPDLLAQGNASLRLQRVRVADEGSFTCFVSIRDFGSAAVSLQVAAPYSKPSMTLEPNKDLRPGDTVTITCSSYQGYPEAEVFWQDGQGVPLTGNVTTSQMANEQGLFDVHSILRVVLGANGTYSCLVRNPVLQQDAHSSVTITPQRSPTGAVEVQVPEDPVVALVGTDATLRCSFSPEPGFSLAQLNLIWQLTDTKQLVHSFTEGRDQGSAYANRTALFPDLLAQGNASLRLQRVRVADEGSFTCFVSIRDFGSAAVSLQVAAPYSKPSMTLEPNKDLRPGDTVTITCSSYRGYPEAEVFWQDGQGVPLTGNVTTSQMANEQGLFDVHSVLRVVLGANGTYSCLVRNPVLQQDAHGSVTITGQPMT


Target: T1, human B7-H3 antigen, recombinant …
Test: ELISA, coated human B7-H3 antigen
Procedure: The binding activity of the 5D9 to B7-H3 antigen was analyzed by ELISA. Human B7-H3 antigens were coated on the 96-well plate and placed at 4° C. overnight. The antibody 5D9 and controls were diluted to 10 μg/mL, followed by 4-fold dilution gradients to generate a total of 8 different concentrations. The diluted samples and the wells coated antigen were incubated for 1h. After washing, HRP (horseradish peroxidase)-labeled goat anti-human IgG (H+L) secondary antibody was added to the plate and incubated for 1h. TMB (3,3′,5,5′-tetramethylbenzidine) solution was then added to each well after washing for chromogenesis. The absorbance was measured at OD₄₅₀ₙₘ with a microplate reader. Taking the logarithmic value of the sample concentration as the X-axis, and the absorbance OD₄₅₀ₙₘ value as the Y-axis, a dose-response curve was drawn to calculate the EC₅₀. The EC₅₀ represents the binding activity of the antibody to B7-H3 antigen. A negative control IgG group and a positive antibody Enoblituzumab control group were meanwhile set in the experiment.
ELISA was used to analyze the binding activity of affinity-matured variants to human B7-H3 antigen. By taking the logarithmic value of the sample concentration as the X-axis, and the absorbance OD₄₅₀ₙₘ value as the Y-axis, a dose-response curve was drawn to calculate the EC₅₀. The EC₅₀ represents the binding activity of the affinity-matured variants to B7-H3 antigen. A positive control Enoblituzumab and a negative control hIgG were set in the experiment.

EC50 | Binder
0.0354 µg/mL | affinity-matured B7-H3 antibody 42A1 (antibody, V domains shown, Full antibody expressed in 293F cells, protein A purified; VH assembled from the framework and CDR entries) VH: QVQLVQSGAEVKKPGSSVKVSCKASGGTGGIYLINWVRQAPGQGLEWMGGIIPLFGTANYAQKFQGRVTITADESTSTAYMELSSLRSDDTAVYYCARDQVVATSGVNFGMDVWGQGTTVTVSS VL: DIQMTQEPSLTTSPGGTVTLTCRSSTGAVTTSNYANWVQEKPGQAPRGLIGGTNKRAPGTPARFSGSLIGGKAALTITGVQPEDEAIYFCALWYSNLWVFGGGTKLEIK
0.0321 µg/mL | affinity-matured B7-H3 antibody 50A1 (antibody, V domains shown, Full antibody expressed in 293F cells, protein A purified; VH assembled from the framework and CDR entries) VH: QVQLVQSGAEVKKPGSSVKVSCKASGGTFSNYAINWVRQAPGQGLEWMGGIIPLFGTANYAQKFQGRVTITADESTSTAYMELSSLRSDDTAVYYCARDQVVPLSGVNFGMDVWGQGTTVTVSS VL: DIQMTQEPSLTTSPGGTVTLTCRSSTGAVTTSNYANWVQEKPGQAPRGLIGGTNKRAPGTPARFSGSLIGGKAALTITGVQPEDEAIYFCALWYSNLWVFGGGTKLEIK
0.0259 µg/mL | affinity-matured B7-H3 antibody 48B12 (antibody, V domains shown, Full antibody expressed in 293F cells, protein A purified; VH assembled from the framework and CDR entries) VH: QVQLVQSGAEVKKPGSSVKVSCKASGGTTGRYLINWVRQAPGQGLEWMGGIIPLFGTANYAQKFQGRVTITADESTSTAYMELSSLRSDDTAVYYCARDQVVATSGVNFGMDVWGQGTTVTVSS VL: DIQMTQEPSLTTSPGGTVTLTCRSSTGAVTTSNYANWVQEKPGQAPRGLIGGTNKRAPGTPARFSGSLIGGKAALTITGVQPEDEAIYFCALWYSNLWVFGGGTKLEIK
0.0309 µg/mL | affinity-matured B7-H3 antibody 49F6 (antibody, V domains shown, Full antibody expressed in 293F cells, protein A purified; VH assembled from the framework and CDR entries) VH: QVQLVQSGAEVKKPGSSVKVSCKASGGTFSNYAINWVRQAPGQGLEWMGGIIPGFDAVNYAQKFQGRVTITADESTSTAYMELSSLRSDDTAVYYCARDQVVATSGVNFGMDVWGQGTTVTVSS VL: DIQMTQEPSLTTSPGGTVTLTCRSSTGAVTTSNYANWVQEKPGQAPRGLIGGTNKRAPGTPARFSGSLIGGKAALTITGVQPEDEAIYFCALWYSNLWVFGGGTKLEIK
0.0272 µg/mL | affinity-matured B7-H3 antibody 48A6 (antibody, V domains shown, Full antibody expressed in 293F cells, protein A purified; VH assembled from the framework and CDR entries) VH: QVQLVQSGAEVKKPGSSVKVSCKASGGTRPPALINWVRQAPGQGLEWMGGIIPLFGTANYAQKFQGRVTITADESTSTAYMELSSLRSDDTAVYYCARDQVVATSGVNFGMDVWGQGTTVTVSS VL: DIQMTQEPSLTTSPGGTVTLTCRSSTGAVTTSNYANWVQEKPGQAPRGLIGGTNKRAPGTPARFSGSLIGGKAALTITGVQPEDEAIYFCALWYSNLWVFGGGTKLEIK
0.0219 µg/mL | affinity-matured B7-H3 antibody 49D12 (antibody, V domains shown, Full antibody expressed in 293F cells, protein A purified; VH assembled from the framework and CDR entries) VH: QVQLVQSGAEVKKPGSSVKVSCKASGGTFSNYAINWVRQAPGQGLEWMGGIIPRFASRNYAQKFQGRVTITADESTSTAYMELSSLRSDDTAVYYCARDQVVATSGVNFGMDVWGQGTTVTVSS VL: DIQMTQEPSLTTSPGGTVTLTCRSSTGAVTTSNYANWVQEKPGQAPRGLIGGTNKRAPGTPARFSGSLIGGKAALTITGVQPEDEAIYFCALWYSNLWVFGGGTKLEIK
0.0245 µg/mL | affinity-matured B7-H3 antibody 49C3 (antibody, V domains shown, Full antibody expressed in 293F cells, protein A purified; VH assembled from the framework and CDR entries) VH: QVQLVQSGAEVKKPGSSVKVSCKASGGTFSNYAINWVRQAPGQGLEWMGGIIPNFESVNYAQKFQGRVTITADESTSTAYMELSSLRSDDTAVYYCARDQVVATSGVNFGMDVWGQGTTVTVSS VL: DIQMTQEPSLTTSPGGTVTLTCRSSTGAVTTSNYANWVQEKPGQAPRGLIGGTNKRAPGTPARFSGSLIGGKAALTITGVQPEDEAIYFCALWYSNLWVFGGGTKLEIK
0.0438 µg/mL | affinity-matured B7-H3 antibody 48E9 (antibody, V domains shown, Full antibody expressed in 293F cells, protein A purified; VH assembled from the framework and CDR entries) VH: QVQLVQSGAEVKKPGSSVKVSCKASGGTGGAYLINWVRQAPGQGLEWMGGIIPLFGTANYAQKFQGRVTITADESTSTAYMELSSLRSDDTAVYYCARDQVVATSGVNFGMDVWGQGTTVTVSS VL: DIQMTQEPSLTTSPGGTVTLTCRSSTGAVTTSNYANWVQEKPGQAPRGLIGGTNKRAPGTPARFSGSLIGGKAALTITGVQPEDEAIYFCALWYSNLWVFGGGTKLEIK
0.0251 µg/mL | affinity-matured B7-H3 antibody 48D10 (antibody, V domains shown, Full antibody expressed in 293F cells, protein A purified; VH assembled from the framework and CDR entries) VH: QVQLVQSGAEVKKPGSSVKVSCKASGGTRPAALINWVRQAPGQGLEWMGGIIPLFGTANYAQKFQGRVTITADESTSTAYMELSSLRSDDTAVYYCARDQVVATSGVNFGMDVWGQGTTVTVSS VL: DIQMTQEPSLTTSPGGTVTLTCRSSTGAVTTSNYANWVQEKPGQAPRGLIGGTNKRAPGTPARFSGSLIGGKAALTITGVQPEDEAIYFCALWYSNLWVFGGGTKLEIK
0.0261 µg/mL | affinity-matured B7-H3 antibody 49E1 (antibody, V domains shown, Full antibody expressed in 293F cells, protein A purified; VH assembled from the framework and CDR entries) VH: QVQLVQSGAEVKKPGSSVKVSCKASGGTFSNYAINWVRQAPGQGLEWMGGIIPVFRSVNYAQKFQGRVTITADESTSTAYMELSSLRSDDTAVYYCARDQVVATSGVNFGMDVWGQGTTVTVSS VL: DIQMTQEPSLTTSPGGTVTLTCRSSTGAVTTSNYANWVQEKPGQAPRGLIGGTNKRAPGTPARFSGSLIGGKAALTITGVQPEDEAIYFCALWYSNLWVFGGGTKLEIK
0.0303 µg/mL | affinity-matured B7-H3 antibody 48G2 (antibody, V domains shown, Full antibody expressed in 293F cells, protein A purified; VH assembled from the framework and CDR entries) VH: QVQLVQSGAEVKKPGSSVKVSCKASGGTSRPVLINWVRQAPGQGLEWMGGIIPLFGTANYAQKFQGRVTITADESTSTAYMELSSLRSDDTAVYYCARDQVVATSGVNFGMDVWGQGTTVTVSS VL: DIQMTQEPSLTTSPGGTVTLTCRSSTGAVTTSNYANWVQEKPGQAPRGLIGGTNKRAPGTPARFSGSLIGGKAALTITGVQPEDEAIYFCALWYSNLWVFGGGTKLEIK
0.0279 µg/mL | affinity-matured B7-H3 antibody 43G5 (antibody, V domains shown, Full antibody expressed in 293F cells, protein A purified; VH assembled from the framework and CDR entries) VH: QVQLVQSGAEVKKPGSSVKVSCKASGGTVRPALINWVRQAPGQGLEWMGGIIPLFGTANYAQKFQGRVTITADESTSTAYMELSSLRSDDTAVYYCARDQVVATSGVNFGMDVWGQGTTVTVSS VL: DIQMTQEPSLTTSPGGTVTLTCRSSTGAVTTSNYANWVQEKPGQAPRGLIGGTNKRAPGTPARFSGSLIGGKAALTITGVQPEDEAIYFCALWYSNLWVFGGGTKLEIK
0.0285 µg/mL | affinity-matured B7-H3 antibody 49C8 (antibody, V domains shown, Full antibody expressed in 293F cells, protein A purified; VH assembled from the framework and CDR entries) VH: QVQLVQSGAEVKKPGSSVKVSCKASGGTFSNYAINWVRQAPGQGLEWMGGIIPKFRSQNYAQKFQGRVTITADESTSTAYMELSSLRSDDTAVYYCARDQVVATSGVNFGMDVWGQGTTVTVSS VL: DIQMTQEPSLTTSPGGTVTLTCRSSTGAVTTSNYANWVQEKPGQAPRGLIGGTNKRAPGTPARFSGSLIGGKAALTITGVQPEDEAIYFCALWYSNLWVFGGGTKLEIK
0.0336 µg/mL | affinity-matured B7-H3 antibody 49H5 (antibody, V domains shown, Full antibody expressed in 293F cells, protein A purified; VH assembled from the framework and CDR entries) VH: QVQLVQSGAEVKKPGSSVKVSCKASGGTFSNYAINWVRQAPGQGLEWMGGIIPDFNSANYAQKFQGRVTITADESTSTAYMELSSLRSDDTAVYYCARDQVVATSGVNFGMDVWGQGTTVTVSS VL: DIQMTQEPSLTTSPGGTVTLTCRSSTGAVTTSNYANWVQEKPGQAPRGLIGGTNKRAPGTPARFSGSLIGGKAALTITGVQPEDEAIYFCALWYSNLWVFGGGTKLEIK
0.033 µg/mL | affinity-matured B7-H3 antibody 49C7 (antibody, V domains shown, Full antibody expressed in 293F cells, protein A purified; VH assembled from the framework and CDR entries) VH: QVQLVQSGAEVKKPGSSVKVSCKASGGTFSNYAINWVRQAPGQGLEWMGGIIPNFYSVNYAQKFQGRVTITADESTSTAYMELSSLRSDDTAVYYCARDQVVATSGVNFGMDVWGQGTTVTVSS VL: DIQMTQEPSLTTSPGGTVTLTCRSSTGAVTTSNYANWVQEKPGQAPRGLIGGTNKRAPGTPARFSGSLIGGKAALTITGVQPEDEAIYFCALWYSNLWVFGGGTKLEIK
0.0286 µg/mL | affinity-matured B7-H3 antibody 49B2 (antibody, V domains shown, Full antibody expressed in 293F cells, protein A purified; VH assembled from the framework and CDR entries) VH: QVQLVQSGAEVKKPGSSVKVSCKASGGTFSNYAINWVRQAPGQGLEWMGGIIPNFHSSNYAQKFQGRVTITADESTSTAYMELSSLRSDDTAVYYCARDQVVATSGVNFGMDVWGQGTTVTVSS VL: DIQMTQEPSLTTSPGGTVTLTCRSSTGAVTTSNYANWVQEKPGQAPRGLIGGTNKRAPGTPARFSGSLIGGKAALTITGVQPEDEAIYFCALWYSNLWVFGGGTKLEIK
0.0426 µg/mL | affinity-matured B7-H3 antibody 47C8 (antibody, V domains shown, Full antibody expressed in 293F cells, protein A purified; VH assembled from the framework and CDR entries) VH: QVQLVQSGAEVKKPGSSVKVSCKASGGTFSNYAINWVRQAPGQGLEWMGGIIPLFGTANYAQKFQGRVTITADESTSTAYMELSSLRSDDTAVYYCARDIEVMASGVNFGMDVWGQGTTVTVSS VL: DIQMTQEPSLTTSPGGTVTLTCRSSTGAVTTSNYANWVQEKPGQAPRGLIGGTNKRAPGTPARFSGSLIGGKAALTITGVQPEDEAIYFCALWYSNLWVFGGGTKLEIK
0.0274 µg/mL | affinity-matured B7-H3 antibody 50A4 (antibody, V domains shown, Full antibody expressed in 293F cells, protein A purified; VH assembled from the framework and CDR entries) VH: QVQLVQSGAEVKKPGSSVKVSCKASGGTFSNYAINWVRQAPGQGLEWMGGIIPLFGTANYAQKFQGRVTITADESTSTAYMELSSLRSDDTAVYYCARDEVVVGSGVNFGMDVWGQGTTVTVSS VL: DIQMTQEPSLTTSPGGTVTLTCRSSTGAVTTSNYANWVQEKPGQAPRGLIGGTNKRAPGTPARFSGSLIGGKAALTITGVQPEDEAIYFCALWYSNLWVFGGGTKLEIK
